Experimental data: paper PMC11194062, “The clade-specific target recognition mechanisms of plant RISCs”

Key:
AGO6 D623A = biological target: T1, AGO6 D623A (Arabidopsis thaliana, UniProt O48771 1-878, D623A); assay: filter binding; 100 mM KOAc, 18 mM HEPES pH 7.4, 3 mM Mg(OAc)2, 5 mM DTT, 0.01% IGEPAL CA-630, 0.01 mg/ml yeast tRNA; 20 pM target; 25 C, 1 h; conditions: protein: ivt; tags: N-terminal 3xFLAG-SUMO, removed by SUMOstar elution; label: target 3' 32P-cordycepin; target 28 nt
T1 sequence: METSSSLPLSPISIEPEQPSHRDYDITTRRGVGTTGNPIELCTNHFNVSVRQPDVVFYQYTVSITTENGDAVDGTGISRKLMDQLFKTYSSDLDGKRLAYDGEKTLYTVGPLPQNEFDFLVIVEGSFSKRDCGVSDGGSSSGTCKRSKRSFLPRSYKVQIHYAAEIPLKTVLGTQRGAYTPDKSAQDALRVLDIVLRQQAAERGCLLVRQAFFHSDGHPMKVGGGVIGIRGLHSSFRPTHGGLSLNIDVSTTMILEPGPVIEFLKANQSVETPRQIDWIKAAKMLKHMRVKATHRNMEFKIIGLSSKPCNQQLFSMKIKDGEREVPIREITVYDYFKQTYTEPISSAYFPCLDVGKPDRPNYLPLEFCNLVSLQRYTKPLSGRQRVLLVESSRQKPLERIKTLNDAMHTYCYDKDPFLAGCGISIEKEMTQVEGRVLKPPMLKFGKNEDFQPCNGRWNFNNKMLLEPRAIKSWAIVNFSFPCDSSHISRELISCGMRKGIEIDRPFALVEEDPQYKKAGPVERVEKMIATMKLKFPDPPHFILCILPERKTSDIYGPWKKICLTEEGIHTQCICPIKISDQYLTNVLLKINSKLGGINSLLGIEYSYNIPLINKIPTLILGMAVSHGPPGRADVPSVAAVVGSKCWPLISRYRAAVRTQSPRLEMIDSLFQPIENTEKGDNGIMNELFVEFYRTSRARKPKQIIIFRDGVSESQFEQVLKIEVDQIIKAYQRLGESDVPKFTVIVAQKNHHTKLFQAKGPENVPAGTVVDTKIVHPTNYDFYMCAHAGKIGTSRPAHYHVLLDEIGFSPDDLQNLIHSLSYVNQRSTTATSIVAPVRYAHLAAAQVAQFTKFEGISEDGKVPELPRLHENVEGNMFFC

AGO9 D632A = biological target: T2, AGO9 D632A (Arabidopsis thaliana, UniProt Q84VQ0 1-896, D632A); assay: as above; conditions: protein: ivt; tags: N-terminal 3xFLAG-SUMO, removed by SUMOstar elution; label: target 3' 32P-cordycepin; target 28 nt
T2 sequence: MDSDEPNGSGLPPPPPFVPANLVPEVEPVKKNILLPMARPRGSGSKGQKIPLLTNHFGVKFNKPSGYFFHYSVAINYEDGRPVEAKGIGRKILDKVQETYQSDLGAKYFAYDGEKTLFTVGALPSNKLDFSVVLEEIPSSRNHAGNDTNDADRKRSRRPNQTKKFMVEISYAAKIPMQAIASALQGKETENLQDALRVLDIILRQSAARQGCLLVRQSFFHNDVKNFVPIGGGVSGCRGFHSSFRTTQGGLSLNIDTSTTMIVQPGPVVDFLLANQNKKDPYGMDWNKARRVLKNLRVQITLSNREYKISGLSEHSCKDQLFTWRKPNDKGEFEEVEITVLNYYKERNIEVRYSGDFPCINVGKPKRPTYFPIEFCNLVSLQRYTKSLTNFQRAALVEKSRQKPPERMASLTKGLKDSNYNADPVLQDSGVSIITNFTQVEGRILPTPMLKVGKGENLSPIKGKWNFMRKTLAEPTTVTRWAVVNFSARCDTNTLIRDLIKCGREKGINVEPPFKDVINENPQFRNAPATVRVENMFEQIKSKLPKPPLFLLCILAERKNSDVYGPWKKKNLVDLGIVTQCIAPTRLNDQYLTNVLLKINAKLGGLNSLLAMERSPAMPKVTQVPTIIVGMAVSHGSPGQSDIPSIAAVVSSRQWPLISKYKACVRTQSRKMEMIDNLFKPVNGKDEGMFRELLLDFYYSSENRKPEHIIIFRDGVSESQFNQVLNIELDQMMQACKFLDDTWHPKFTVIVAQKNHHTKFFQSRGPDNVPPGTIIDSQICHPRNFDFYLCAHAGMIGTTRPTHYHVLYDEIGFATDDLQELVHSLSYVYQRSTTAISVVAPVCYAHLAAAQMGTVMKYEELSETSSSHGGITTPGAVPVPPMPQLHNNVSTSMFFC

AGO4 D660A [1] = biological target: T3, AGO4 D660A (Arabidopsis thaliana, UniProt Q9ZVD5 1-924, D660A); assay: as above; conditions: protein: ivt, tags: N-terminal 3xFLAG-SUMO, removed by SUMOstar elution, label: target 3' 32P-cordycepin; for Kd: target 28 nt
T3 sequence: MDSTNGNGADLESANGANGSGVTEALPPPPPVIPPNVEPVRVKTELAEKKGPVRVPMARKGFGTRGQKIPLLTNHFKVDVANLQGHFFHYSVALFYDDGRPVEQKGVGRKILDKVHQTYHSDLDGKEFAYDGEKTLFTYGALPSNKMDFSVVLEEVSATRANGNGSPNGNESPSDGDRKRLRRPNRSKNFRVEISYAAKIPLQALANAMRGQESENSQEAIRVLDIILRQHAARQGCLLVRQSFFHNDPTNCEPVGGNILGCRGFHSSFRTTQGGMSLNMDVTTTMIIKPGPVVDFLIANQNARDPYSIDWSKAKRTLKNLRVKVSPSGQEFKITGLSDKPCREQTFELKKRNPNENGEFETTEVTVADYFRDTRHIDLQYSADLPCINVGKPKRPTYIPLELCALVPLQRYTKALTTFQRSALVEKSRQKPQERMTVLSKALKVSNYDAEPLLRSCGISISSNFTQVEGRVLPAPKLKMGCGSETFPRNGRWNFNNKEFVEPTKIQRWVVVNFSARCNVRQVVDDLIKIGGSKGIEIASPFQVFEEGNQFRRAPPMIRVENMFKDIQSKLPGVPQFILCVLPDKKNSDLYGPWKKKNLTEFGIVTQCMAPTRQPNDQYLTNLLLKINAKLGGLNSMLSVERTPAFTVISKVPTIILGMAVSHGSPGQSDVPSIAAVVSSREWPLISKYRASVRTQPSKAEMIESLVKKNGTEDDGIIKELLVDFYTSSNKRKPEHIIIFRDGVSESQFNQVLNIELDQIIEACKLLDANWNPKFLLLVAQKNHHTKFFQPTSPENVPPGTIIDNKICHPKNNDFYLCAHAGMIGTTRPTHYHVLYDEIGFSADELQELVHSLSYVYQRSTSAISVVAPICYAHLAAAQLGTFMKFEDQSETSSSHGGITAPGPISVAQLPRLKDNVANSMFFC

AGO4 D660A [2] = biological target: T3, AGO4 D660A; assay: as above; conditions: protein: ivt; tags: N-terminal 3xFLAG-SUMO, removed by SUMOstar elution; label: target 3' 32P-cordycepin; mismatch at g20-g21
AGO4 D660A [3] = biological target: T3, AGO4 D660A; assay: filter binding; did not bind at all; 100 mM KOAc, 18 mM HEPES pH 7.4, 3 mM Mg(OAc)2, 5 mM DTT, 0.01% IGEPAL CA-630, 0.01 mg/ml yeast tRNA; 20 pM target; 25 C, 1 h; conditions: protein: ivt; tags: N-terminal 3xFLAG-SUMO, removed by SUMOstar elution; label: target 3' 32P-cordycepin; only g2-g8 paired

B1: 24-nt 5'A guide / t1T DNA (DNA:RNA)
RNA: AGAGGUAGAUCCUUGUAUAGUCUC
DNA: ACGAGACTATACAAGGATCTACCTCTCAA
modifications: guide 3' 2'-O-methyl
Kd (AGO6 D623A): 7.3 pM | Kd (AGO9 D632A): 2.12 pM | Kd (AGO4 D660A [1]): 0.93 pM

B2: 24-nt 5'A guide / mm20-21 RNA (dsRNA)
RNA 1: AGAGGUAGAUCCUUGUAUAGUCUC
RNA 2: ACGAGUGUAUACAAGGAUCUACCUCUCAA
modifications: guide 3' 2'-O-methyl
binding signal (AGO4 D660A [2]): ~10 fold lower affinity than t1U

B3: 24-nt 5'A guide / mm20-21 DNA (DNA:RNA)
RNA: AGAGGUAGAUCCUUGUAUAGUCUC
DNA: ACGAGTGTATACAAGGATCTACCTCTCAA
modifications: guide 3' 2'-O-methyl
binding result (AGO4 D660A [1]; mismatch at g20-g21): binds

B4: 24-nt 5'A guide / mm6-7 DNA (DNA:RNA)
RNA: AGAGGUAGAUCCUUGUAUAGUCUC
DNA: ACGAGACTATACAAGGATCATCCTCTCAA
modifications: guide 3' 2'-O-methyl
binding result (AGO4 D660A [1]; mismatch at g6-g7): binds

B5: 24-nt 5'A guide / mm8-9 DNA (DNA:RNA)
RNA: AGAGGUAGAUCCUUGUAUAGUCUC
DNA: ACGAGACTATACAAGGAAGTACCTCTCAA
modifications: guide 3' 2'-O-methyl
binding result (AGO4 D660A [1]; mismatch at g8-g9): binds

B6: 24-nt 5'A guide / mm23-24 DNA (DNA:RNA)
RNA: AGAGGUAGAUCCUUGUAUAGUCUC
DNA: ACCTGACTATACAAGGATCTACCTCTCAA
modifications: guide 3' 2'-O-methyl
binding result (AGO4 D660A [1]; mismatch at g23-g24): binds

B7: 24-nt 5'A guide / seed-only (2-8) RNA (dsRNA)
RNA 1: AGAGGUAGAUCCUUGUAUAGUCUC
RNA 2: ACCUCUGAUAUGUUCCUACUACCUCUCAA
modifications: guide 3' 2'-O-methyl
binding result (AGO4 D660A [3]): no binding

B8: 24-nt 5'A guide / seed-only (2-8) DNA (DNA:RNA)
RNA: AGAGGUAGAUCCUUGUAUAGUCUC
DNA: ACCTCTGATATGTTCCTACTACCTCTCAA
modifications: guide 3' 2'-O-methyl
binding result (AGO4 D660A [3]): no binding

B9: 24-nt 5'A guide / t1U RNA (dsRNA)
RNA 1: AGAGGUAGAUCCUUGUAUAGUCUC
RNA 2: ACGAGACUAUACAAGGAUCUACCUCUCAA
modifications: guide 3' 2'-O-methyl
Kd (AGO6 D623A): 50.4 pM | Kd (AGO9 D632A): 12.7 pM | Kd (AGO4 D660A [1]): 1.71 pM
